Where no end group is shown, it is not given here.
Columns and labels:
[1] = Rheological properties of pH adjusted peptide solutions; type: physicochemical; conditions: for rheological properties of solutions at pH 3.4: pH adjusted vs not adjusted, KLD12 1%, IEIK13 1%, PuraMatrix 1% and 2.5%
Procedure: Based on the visual observation of the effect of pH level on the properties of the peptide solutions, the effect on the rheological properties of the peptide solutions after adjusting their pH level to 3.4 (PuraMatrix® (SEQ ID NO:1) and KLD12 (SEQ ID NO:3)) or 3.7 (IEIK13 (SEQ ID NO:2)) was evaluated. If the pH levels of peptide solutions are higher than 3.5 (PuraMatrix® (SEQ ID NO:1) and KLD12 (SEQ ID NO:3)) or 3.7 (IEIK13 (SEQ ID NO:2)), the peptide solution began phase separation becoming cloudy. The rheological properties of PuraMatrix® (SEQ ID NO:1), KLD12 (SEQ ID NO:3) and IEIK13 (SEQ ID NO:2) solutions were higher at pH 3.4. The results are shown in FIG. 2 for KLD12 (SEQ ID NO:3) 1%, FIG. 3 for IEIK13 (SEQ ID NO:2) 1%, and FIGS. 4-5 for PuraMatrix® (SEQ ID NO:1) 1% and 2.5%, respectively. Stress sweep tests were performed at 10 rad/s. Frequency sweep tests were performed at 1 Pa.
Based on the results of the effect on the rheological properties of the peptide solutions after adjusting their pH level to 3.4 (PuraMatrix® (SEQ ID NO:1) and KLD12 (SEQ ID NO:3)) or 3.7 (IEIK13 (SEQ ID NO:2)), the effect on the rheological properties of the peptide solutions at various pH levels was evaluated. […] The rheological properties of peptides were evaluated at various concentrations using a rheometer (DHR-1, TA Instruments) with 20 mm plates. The results are shown in FIG. 6A for PuraMatrix® (SEQ ID NO:1) 2.5% solution and FIG. 6B for IEIK13 (SEQ ID NO:2) 1.5% solution, respectively. Frequency sweep tests were performed from 1 rad/sec to 10 rad/sec at 1 Pa and the storage modulus at 1 rad/sec was selected for data.

[2] = Gelation of peptide solutions after saline buffer treatment, time sweep test; type: physicochemical; conditions: saline buffer (0.15 M of NaCl), no pH change; IEIK13 1.5%, KLD12 1.5%, PuraMatrix 2.5%
Procedure: The effect of salt ionic strength level surrounding peptides in solution on the properties of peptide solutions was evaluated to identify the possibility of peptide gelation when the peptide solution is placed into the environment where salt ionic strength level is high. […] Without pH effect, the effect of saline treatment on gelation of peptide solutions were evaluated. […] This is because IEIK13 (SEQ ID NO:2) is much more sensitive to salt ionic strength levels. Fast gelation of IEIK13 (SEQ ID NO:2) at the salt ionic strength level similar to body fluid isotonic salt level may generally improve its function and gelation speed for various clinical applications. The results are shown in FIG. 19 for IEIK13 (SEQ ID NO:2), KLD12 (SEQ ID NO:3) and PuraMatrix® (SEQ ID NO:1) solutions. Time sweep tests were performed at 1 rad/sec and at 1 Pa with 20 mm plates and 500 μm gap distance. […]

[3] = Salt ionic strength plus pH adjustment: appearance and rheological properties; type: physicochemical; conditions: for appearance of peptide solutions: 0.9% NaCl (ionic strength: 0.15 M) at pH 3.4 adjusted with NaOH
From the text: In accordance with one or more embodiments, IEIK13 (SEQ ID NO:2), KLD12 (SEQ ID NO:3), and PuraMatrix® (SEQ ID NO:1) may be dissolved both in salt buffer such as NaCl and at an elevated pH level adjusted with alkali salt buffer such as NaOH to keep their salt ionic strength under their critical salt points as well as their pH level to about 2.5˜4.0, so that they may have stiffer properties. With respect to PuraMatrix® (SEQ ID NO:1), […] and IEIK13 (SEQ ID NO:2), the peptide solutions are still clear with 0.9% NaCl (ionic strength: 0.15 M) at pH 3.4 adjusted with NaOH. The rheological property of PuraMatrix® (SEQ ID NO:1) with 0.9% NaCl (ionic strength: 0.15 M) at pH 3.4 was stiffer than those of PuraMatrix® (SEQ ID NO:1) control and PuraMatrix® (SEQ ID NO:1) with only NaCl 0.9%. The effect of salt ionic strength and pH adjustment on the rheological properties of PuraMatrix® (SEQ ID NO:1) 2.5% solution are shown in FIG. 20. Frequency sweep tests were performed from 1 rad/sec to 10 rad/sec at 1 Pa and the storage modulus at 1 rad/sec was selected for data.

Swine lungs = assay: Lung volume reduction: injection of peptide hydrogel into bronchi of excised lungs; conditions: for filling of lumens of the lungs (histology): hydrogel with 0.00585% Indigo Carmine
From the text: Swine lungs were obtained from freshly euthanized pigs. An endotracheal tube, connected to a syringe filled with a peptide hydrogel, was inserted through the trachea and primary bronchus into the lobe of interest. The tube was led through the bronchi to the end of the appropriate lobe and the distance was noted.
The self-assembling peptide hydrogels were comprised of Ac-RADARADARADARADA-NH2 (SEQ ID NO: 1) (i.e., RADA16) or Ac-IEIKIEIKIEIKI-NH2 (SEQ ID NO: 2) (i.e., IEIK13). RADA16 (SEQ ID NO:1) or IEIK13 (SEQ ID NO:2) was mixed with 0.00585% Indigo Carmine to observe spreading of the hydrogels throughout the lobes. When mixed, the peptides were reconstituted with […]. The peptides were reconstituted first in deionized water, and subsequently with 1% Indigo Carmine to provide a final concentration of 0.00585% of the contrast reagent.
Once the lobe of interest was identified, the endotracheal tube was fed to the end where the hydrogels were injected. After each injection of 1 ml of hydrogel the tube was retracted 2 cm and the injection was repeated. This procedure was repeated until a backflow of hydrogel was observed from the bronchi and the total volume of hydrogel injected was noted. The final injection ranged from 0.5-1.5 ml. After backflow of hydrogel was observed, the lobes were cut at 90 degrees to the midline for histological analysis. FIG. 25 illustrates the procedural flow of injecting peptide hydrogel into the bronchi of a single lobe of the lung and observation of penetration of the solution. Lumen penetration of 1% Indigo Carmine solution (left) was compared to 1.5% IEIK13 (SEQ ID NO:2)+0.00585% Indigo Carmine (right).
Tissue samples were fixed in paraformaldehyde and rinsed with ethanol. Histology was conducted at Beth Israel Deaconess Medical Center. […] FIG. 28A presents the IEIK13 (SEQ ID NO:2) gel observed within the major lumens. FIG. 28B presents the IEIK13 ((SEQ ID NO:2) gel observed within the minor lumens. Due to H&E processing, peptide gels break/fragment. Optical imaging has shown that these gels remain as bulk structures.

Substance | pH level above which the peptide solution began phase separation becoming cloudy [1] | rheological properties of solutions at pH 3.4 [1] | gelation after saline buffer treatment [2] | appearance of peptide solutions [3] | filling of lumens of the lungs (histology) (Swine lungs) | rheological property versus control and versus only NaCl 0.9% ([3]; 2.5% solution, 0.9% NaCl (ionic strength: 0.15 M) at pH 3.4) | lung volume reduction, penetration into lung tissue, versus 1.5% IEIK13 (Swine lungs; 1.0% with 0.00585% Indigo Carmine)
Ile-Glu-Ile-Lys-Ile-Glu-Ile-Lys-Ile-Glu-Ile-Lys-Ile [IEIK13] | > 3.7 | higher | fast gelation | still clear | filled both major and minor lumens | – | –
Arg-Ala-Asp-Ala-Arg-Ala-Asp-Ala-Arg-Ala-Asp-Ala-Arg-Ala-Asp-Ala [PuraMatrix ®] | – | higher | no or negligible gelation | still clear | filled both major and minor lumens | stiffer | decidedly better
KLDLKLDLKLDL [KLD12] | – | higher | no or negligible gelation | still clear | – | – | –
